Values belong to the substance of their own block, whether it stands above or below them.
Columns and labels:
[1] = target: complete murine IgG1 molecule (mouse); assay: 125I-sFcRn on mIgG1-Sepharose, incubation at pH 7.5 (931,302 cpm added)
[2] = target: complete murine IgG1 molecule (mouse); assay: 125I-sFcRn on mIgG1-Sepharose, incubation at pH 6.0 in presence of 500 ug free mIgG1 (937,985 cpm added)
[3] = target: complete murine IgG1 molecule (mouse); assay: 125I-sFcRn on mIgG1-Sepharose, incubation at pH 6.0 (937,685 cpm added)
[4] = target: complete murine IgG1 molecule (mouse); assay: 125I-sFcRn on mIgG1-Sepharose, incubation at pH 7.5 (943,936 cpm added)
[5] = target: complete murine IgG1 molecule (mouse); assay: 125I-sFcRn on mIgG1-Sepharose, incubation at pH 7.5 (958,958 cpm added)
[6] = target: complete murine IgG1 molecule (mouse); assay: 125I-sFcRn on mIgG1-Sepharose, incubation at pH 6.0 (913,948 cpm added)
[7] = target: recombinant soluble mouse FcRn (mouse) (UniProt Q61559); assay: inhibition of 125I-sFcRn binding to murine IgG1-Sepharose; molar ratio of inhibitor/FcRn given as 1/1000
[8] = target: recombinant soluble mouse FcRn (mouse) (UniProt Q61559); assay: inhibition of 125I-sFcRn binding to murine IgG1-Sepharose; molar ratio of inhibitor/FcRn given as 1/500
[9] = target: recombinant soluble mouse FcRn (mouse) (UniProt Q61559); assay: SPR (BIAcore 2000), FcRn coupled to CM5 chip, Fc-hinge 100-300 nM in flow, pH 6.0
[10] = target: T1, FcRn of neonatal mouse intestine (mouse) (UniProt Q61559); assay: cell-based or functional assay
T1 sequence (looked up): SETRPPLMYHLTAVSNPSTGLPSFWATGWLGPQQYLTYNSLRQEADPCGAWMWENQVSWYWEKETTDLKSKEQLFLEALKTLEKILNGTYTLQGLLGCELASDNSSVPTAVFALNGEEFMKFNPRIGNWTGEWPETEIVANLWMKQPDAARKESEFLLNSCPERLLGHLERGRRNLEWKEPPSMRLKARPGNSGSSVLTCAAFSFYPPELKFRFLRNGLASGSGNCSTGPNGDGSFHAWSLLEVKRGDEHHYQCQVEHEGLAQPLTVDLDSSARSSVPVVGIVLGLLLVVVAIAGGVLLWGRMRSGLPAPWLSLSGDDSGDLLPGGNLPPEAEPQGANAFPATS
T1 sequence (b2m, looked up): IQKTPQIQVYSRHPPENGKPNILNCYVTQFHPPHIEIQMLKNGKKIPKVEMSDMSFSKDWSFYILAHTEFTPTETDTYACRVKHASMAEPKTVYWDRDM

[11] = target: Staphylococcal protein A (Staphylococcal) (UniProt P38507); assay: direct binding of 125I-Fc-hinge fragments to SpA-agarose, pH 7.5

Substance: recombinant soluble mouse FcRn (from UniProt Q61559 22-290; P01887 21-119) (receptor)
- bound radioactivity [1]: 19600 cpm
- bound radioactivity after pH 7.5 wash [1]: 16800 cpm
- bound radioactivity [2]: 70700 cpm
- bound radioactivity after pH 7.5 wash [2]: 26500 cpm
- bound radioactivity [3]: 228000 cpm
- bound radioactivity after pH 7.5 wash [3]: 42700 cpm
- bound radioactivity [4]: 11600 cpm
- bound radioactivity after pH 7.5 wash [4]: 10300 cpm
- bound radioactivity [5]: 12300 cpm
- bound radioactivity after pH 7.5 wash [5]: 9470 cpm
- bound radioactivity [6]: 271000 cpm
- bound radioactivity after pH 7.5 wash [6]: 42600 cpm

Substance: bovine serum albumin (from UniProt P02769 25-607)
- Inhibition of transmission (%) of radiolabeled mIgG1 across the intestine of neonatal mice [10]: 8.9%

Substance: HQ-310/HN-433 mutant Fc-hinge fragment (from UniProt P01868 98-324)
- % inhibition [7]: 4%
- % inhibition [8]: 0.2%

Substance: HN-433 mutant Fc-hinge fragment
- Inhibition of transmission (%) of radiolabeled mIgG1 across the intestine of neonatal mice [10]: 44.4%

More lines, now with the values ahead:

- % inhibition [7]: 6.5%
- % inhibition [8]: 2.3%
Substance: I253A mutant Fc-hinge fragment (from UniProt P01868 98-324)

- % inhibition [7]: 34.1%
- Kd [9]: 7.44 nM
- koff [9]: 0.00461 s⁻¹
- kon [9]: 620000 M⁻¹ s⁻¹
- % inhibition [8]: 18.4%
Substance: wild type (WT) Fc-hinge fragment derived from murine IgG1 (from UniProt P01868 98-324)

- Inhibition of transmission (%) of radiolabeled mIgG1 across the intestine of neonatal mice [10]: 62.5%
Substance: Fc fragment of murine IgG1 produced by papain digestion (from UniProt P01868 98-324)

- % inhibition [7]: 6.1%
- Inhibition of transmission (%) of radiolabeled mIgG1 across the intestine of neonatal mice [10]: 8.9%
- % inhibition [8]: 1.6%
Substance: HQ-310 mutant Fc-hinge fragment

- Inhibition of transmission (%) of radiolabeled mIgG1 across the intestine of neonatal mice [10]: 21.5%
Substance: Fc-hybrid (heterodimer of WT Fc-hinge and HQ-310/HN-433 mutant)

- SpA binding, % of WT Fc-hinge [11]: 9 to 12 % of WT
Substance: H310A and H435A

From patent publication US20020098193A1
